{"source": "paper doi:10.1101/2023.04.03.535445", "about": "(bioRxiv, 2023)", "molecules": {"B1": {"name": "short peptide encompassing PTS1 of MDH (residues 319-ARSKL-323) (peptide)", "peptide": "H-ARSKL-OH"}, "B2": {"name": "glycosomal malate dehydrogenase (MDH, residues 1-323) of Trypanosoma cruzi (enzyme, UniProt Q4DRD8 1-323, looked up)", "chain": "MVNVAVIGAAGGIGQSLSLLLLRELPFGSTLSLYDVVGAPGVAADLSHIDRAGITVKHAAGKLPPVPRDPALTELAEGVDVFVIVAGVPRKPGMTRDDLFNVNAGIVMDLVLTCASVSPNACFCIVTNPVNSTTPIAAQTLRKIGVYNKNKLLGVSLLDGLRATRFINNARHPLVVPYVPVVGGHSDVTIVPLYSQIPGPLPDESTLKEIRKRVQVAGTEVVKAKAGRGSATLSMAEAGARFTMHVVKALMGLDTPMVYAYVDTDGEHECPFLAMPVVLGKNGIERRLPIGPITTVEKEMLEEAVGVVKKNIAKGETFARSKL"}}, "key": {"[1]": {"biological_target": "truncated Pex5 containing a single Wxxx(F/Y) motif (residues 314-666; Pex5TPR) (Trypanosoma cruzi) (UniProt Q4DPQ9)", "test": "ITC"}, "[2]": {"biological_target": "Pex5TPR with a GSGS-spacer between the TPR domain and the Wxxx(F/Y) motif (Trypanosoma cruzi) (UniProt Q4DPQ9)", "test": "ITC"}, "[3]": {"biological_target": "Pex5 Y358A mutant (Pex5TPR) (Trypanosoma cruzi) (UniProt Q4DPQ9)", "test": "ITC"}, "[4]": {"biological_target": "glycosomal malate dehydrogenase (MDH, residues 1-323) of Trypanosoma cruzi (Trypanosoma cruzi) (UniProt Q4DRD8)", "test": "ITC"}, "[5]": {"biological_target": "MDH with the 62-70 loop replaced with GS-linker (Trypanosoma cruzi)", "test": "ITC"}, "[6]": {"biological_target": "MDH GSGS-linker mutant (GSGS introduced between PTS1 and MDH) (Trypanosoma cruzi)", "test": "ITC"}, "[7]": {"biological_target": "Pex5 mutant with a partial deletion of the 457-489 loop (Pex5 Δ470-480) (Trypanosoma cruzi) (UniProt Q4DPQ9)", "test": "ITC"}, "cryo-EM structure": {"biological_target": "the molecule itself", "test": "cryo-EM structure"}}, "data": [{"molecule": "Pex14NTD(A48F) (domain or fragment)", "values": [{"measurement": "fold decrease in affinity against wild type Pex14NTD", "setting": "[1]", "value": 2, "unit": "fold"}]}, {"molecule": "N-terminal domain of Pex14 (Pex14NTD; residues 21-85) of Trypanosoma cruzi (domain or fragment)", "values": [{"measurement": "fold decrease in affinity against wild type Pex5", "setting": "[2]", "value": 3.5, "unit": "fold"}, {"measurement": "Kd", "setting": "[1]", "value": 0.053, "unit": "µM"}, {"measurement": "fold decrease in affinity against wild type Pex5", "setting": "[3]", "value": 1.5, "unit": "fold"}]}, {"molecule": "Pex5 P490R mutant (from UniProt Q4DPQ9 316-668) (domain or fragment)", "values": [{"measurement": "fold decrease in affinity against wild type Pex5", "setting": "[4]", "value": "> 3", "unit": "fold"}]}, {"molecule": "truncated Pex5 containing a single Wxxx(F/Y) motif (residues 314-666; Pex5TPR) (from UniProt Q4DPQ9 316-668) (domain or fragment)", "values": [{"measurement": "fold decrease in affinity against wild type MDH", "setting": "[5]", "value": 2.5, "unit": "fold"}, {"measurement": "Kd", "setting": "[4]", "value": 0.435, "unit": "µM"}, {"measurement": "fold increase in affinity against wild type MDH", "setting": "[6]", "value": 4, "unit": "fold"}]}, {"molecule": "B1", "values": [{"measurement": "fold decrease in affinity against wild type Pex5", "setting": "[7]", "value": 3, "unit": "fold"}]}, {"molecule": "B2", "values": [{"measurement": "stoichiometry N", "setting": "cryo-EM structure", "value": 4}]}]}
